These are literature values, as cited in paper PMC6815250.

As usually defined, the Ki is the equilibrium dissociation constant of an inhibitor or competing ligand from its target.

In the data set the target is RgpB pro-fragment pro-fragment (Porphyromonas gingivalis) (UniProt P95493).

Chain of RgpB (P95493 230-736): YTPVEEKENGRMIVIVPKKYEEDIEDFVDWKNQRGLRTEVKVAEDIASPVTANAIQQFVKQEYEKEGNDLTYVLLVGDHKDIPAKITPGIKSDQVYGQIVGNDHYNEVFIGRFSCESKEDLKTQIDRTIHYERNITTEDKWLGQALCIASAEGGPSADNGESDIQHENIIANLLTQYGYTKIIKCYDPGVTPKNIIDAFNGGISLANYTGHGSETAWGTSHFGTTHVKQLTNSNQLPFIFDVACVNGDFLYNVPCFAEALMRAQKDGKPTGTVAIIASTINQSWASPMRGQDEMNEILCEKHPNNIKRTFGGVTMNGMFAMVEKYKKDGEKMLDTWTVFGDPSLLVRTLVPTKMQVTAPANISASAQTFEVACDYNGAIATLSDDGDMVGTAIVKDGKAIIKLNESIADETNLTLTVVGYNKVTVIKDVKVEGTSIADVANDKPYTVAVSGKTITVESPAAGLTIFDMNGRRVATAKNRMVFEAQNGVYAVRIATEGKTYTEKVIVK

For the substance RgpB (from UniProt P95493), the Ki is 6.3 nM.
